Experimental data from paper PMC7820495.

B1: VCP^WT-sfGFP (Drosophila VCP tagged with sfGFP at the endogenous locus) [Drosophila] / wild-type VCP (endogenous, untagged, Drosophila) [Drosophila (endogenous in flies)] (parent)
chain 1: MADSKGEDLATAILKRKDRPNRLIVEEAQNDDNSVVSLSQAKMDELQLFRGDTVILKGKRRKETVCIVLSDDTCPDEKIRMNRVVRNNLCVHLSDVVSVQSCPDVKYGKRVRILPIDESTEGVTGNLFEIYLKPYFLEAYRPIHMGDNFIVRAAMRPIEFKVVLTDPEPYCIVAPETVIFCDGDPIKREEEEESLNAVGYDDIGGCRKQLAQIKEMVELPLRHPSLFKAIGVKPPRGILMYGPPGTGKTLIARAVANETGAFFFLINGPEIMSKLAGESESNLRKAFEEAEKNSPAIIFIDEIDAIAPKRDKTHGEVERRIVSQLLTLMDGMKKSSHLIVMAATNRPNSIDPALRRFGRFDREIDIGIPDATGRLEVLRIHTKNMKLHDDVDLEQIAAESHGHVGADLASLCSEAALQQIREKMDLIDLEDDKIDAEVLASLAVTMENFRYAMTKSSPSALRETVVEVPNTTWTDIGGLESVKKELQELVQYPVEHPDKFLKFGMQPSRGVLFYGPPGCGKTLLAKAIANECQANFISVKGPELLTMWFGESEANVRDIFDKARSAAPCVLFFDELDSIAKARGGNVGDAGGAADRVINQILTEMDGMGAKKNVFIIGATNRPDIIDPAILRPGRLDQLIYIPLPDDKSREAILKANLRKSPLAKEVDLTYIAKVTQGFSGADLTEICQRACKLAIRQAIEAEIRREKERAENQNSAMDMDEDDPVPEITSAHFEEAMKFARRSVSDNDIRKYEMFAQTLQQSRGFGQNFRFPGQTGNTSGSGNNLPVNSPGDNGDDDLYS
chain 2: B1 chain 1

Variants of: B1
Assay: co-immunoprecipitation (IP: GFP, IB: VCP), band quantification
Details: with wild-type VCP (endogenous, untagged, Drosophila) [Drosophila (endogenous in flies)]; heterozygous flies; n = 3 independent experiments; read off a plot

response	Variant
0.93	chain 1 P134L
